Results: the supplement of paper PMC9732359
± gives the uncertainty stated by the source.

Experiment: protein stability index of a GFP-peptide fusion (yeast GPS) (PSI 1-4); higher = more stable; sorted into four equal gates, so the index is relative within each strain
How it was run: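 Each library plasmid carries Cherry plus GFP with a tiled 17-residue yeast protein peptide fused downstream, and the pooled library was carried in yeast. Mid-log cultures in leucine-free medium were sorted into four equal gates by GFP/Cherry ratio. Reads from Illumina sequencing of PCR-amplified plasmids from each gate were assigned to strains by barcodes. Per peptide, the protein stability index was computed as the summed products of gate read frequency and gate number.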

Sequence	protein stability index (doa10∆)	protein stability index (pdr5∆)	protein stability index (san1∆)	protein stability index (ubr1∆)
MVMFMHMAKGLYYGSYR [COB]	1.18 ± 0.086	1.16 ± 0.13	1.75 ± 0.22	1.13 ± 0.072
YINDVHLLYPPHIIAVA [SSN8]	1.74 ± 0.057	1.46 ± 0.041	2.15 ± 0.072	1.67 ± 0.065
PLNVLQDQYKEGIKVVD [SNF2]	–	2.46 ± 0.11	1.78 ± 0.092	2.62 ± 0.093
LNIGLGAVGLKDLTLCR [YCS4]	2.3 ± 0.079	2.41 ± 0.1	2.15 ± 0.095	2.53 ± 0.056
KVFVPPKSKSLPNEMSQ [RPO31]	3.1 ± 0.13	3.14 ± 0.12	3.09 ± 0.16	2.87 ± 0.13
PAKSASARGSYLRVSFK [RPL17A]	3.2 ± 0.046	3.27 ± 0.051	3.091 ± 0.029	3.14 ± 0.041
NKLTGKQIVFEIPSETH [RPS7A]	3 ± 0.09	2.95 ± 0.091	2.86 ± 0.068	2.78 ± 0.11
FGVTKARWPAKSVKFVQ [RPL17A]	2.63 ± 0.088	2.51 ± 0.077	2.55 ± 0.069	3.05 ± 0.059
NPRKRAIPNSIIKRSNG [YMR153W/NUP53]	2.19 ± 0.091	2.7 ± 0.1	2.67 ± 0.1	2.92 ± 0.12
LTIFDSVDESARIKDAF [YJL039C/NUP192]	3.01 ± 0.11	3.07 ± 0.094	3.19 ± 0.051	3.02 ± 0.093
TCVTCHWNLPGERIFNK [SIR2]	2.87 ± 0.14	2.88 ± 0.11	2.82 ± 0.091	3.19 ± 0.083
GVATKDKFFTLSAENIE [SCL1]	–	–	–	3.28 ± 0.25
ESKLSLETLFNRWHSES [FAS2]	3.26 ± 0.084	3.24 ± 0.1	3.1 ± 0.064	3.11 ± 0.065
ENPDLSTKKKILGIHTS [RPT2]	2.8 ± 0.14	3.02 ± 0.24	2.98 ± 0.087	2.9 ± 0.15
QQPNPLQDLISVYGLDD [ROX3]	1.95 ± 0.073	1.76 ± 0.061	2.02 ± 0.15	1.97 ± 0.084
FIAVGQILPESQWNDSS [SIR3]	2.27 ± 0.16	3.08 ± 0.14	2.61 ± 0.24	2.71 ± 0.097
EISISFDVNNIDMHLIY [YDL116W/NUP84]	1.94 ± 0.082	2.43 ± 0.093	2.02 ± 0.089	2.25 ± 0.057
NQMGMGTNNGMSMGGGV [YOR098C/NUP1]	3.39 ± 0.13	3.15 ± 0.17	3.33 ± 0.099	3.24 ± 0.11
SASHILIPASDLSWSKQ [PRP8]	1.48 ± 0.069	1.93 ± 0.058	1.53 ± 0.082	1.95 ± 0.038
ATQMTLNTFHFAGVASK [RPO21]	1.89 ± 0.11	1.9 ± 0.076	2 ± 0.22	2.32 ± 0.14
SYQKAWDLLQSGSQNIS [RPN12]	1.18 ± 0.096	1.11 ± 0.084	1.2 ± 0.13	1.08 ± 0.14
IVVVIEIITSLSMRFQR [SRB8]	2.5 ± 0.12	2.71 ± 0.092	2.18 ± 0.084	2.06 ± 0.087
QKRQLHDISKTETSNED [SNU114]	3.06 ± 0.049	2.97 ± 0.045	2.98 ± 0.039	3.044 ± 0.03
FDYMNRYWVQKERSDGK [CDC53]	2.26 ± 0.16	–	2.39 ± 0.21	2.57 ± 0.18
ALSGNEGDASPFTDITV [RPB2]	2.99 ± 0.14	3.12 ± 0.075	3.12 ± 0.099	3.1 ± 0.15
EGLSAQIAFDLVSSASQ [RPN2]	2.6 ± 0.068	3.05 ± 0.075	2.67 ± 0.1	2.62 ± 0.039

Sequence	protein stability index (doa10∆)	protein stability index (pdr5∆)	protein stability index (san1∆)	protein stability index (ubr1∆)
SDPAAKKTATEPKQKAN [SRP21]	3.21 ± 0.11	3.04 ± 0.09	3.32 ± 0.046	3.01 ± 0.11
RFVIWTEAAFTKLDQVW [RPL4A]	3.18 ± 0.11	2.39 ± 0.096	2.28 ± 0.24	2.39 ± 0.13
ISSLMFDEEFDPFKTSS [IRR1]	–	–	2.7 ± 0.14	2.99 ± 0.26
AAASLPSKKLKTEDGFV [RPC82]	3.21 ± 0.1	3.09 ± 0.1	2.84 ± 0.091	3.04 ± 0.065
VWFSHPRRFGKGSRQCR [RPS29B]	3.02 ± 0.1	3.21 ± 0.065	3.44 ± 0.091	3.23 ± 0.071
VKNTNANPVVATDPVAA [SWP82]	2 ± 0.1	2.91 ± 0.1	2.5 ± 0.091	2.47 ± 0.061
TLELSAQFRVPRYHSKN [SWP82]	2.52 ± 0.067	2.72 ± 0.056	2.49 ± 0.065	2.74 ± 0.041
LSRLSTASKIIVIDVDY [MED1]	2.07 ± 0.058	2.3 ± 0.067	2.2 ± 0.051	2.41 ± 0.074
KLVTYIVKFKQKEEGRS [YLR335W/NUP2]	3.1 ± 0.06	3.1 ± 0.067	3.33 ± 0.044	3.34 ± 0.051
QRVFKPVDITMMENYQN [PRP8]	2.43 ± 0.063	2.27 ± 0.074	2.71 ± 0.073	2.41 ± 0.048
EYEKRNHGGSLGKYDLT [SRP68]	2.81 ± 0.18	2.56 ± 0.15	2.15 ± 0.14	1.3 ± 0.14
TKSGATTSEKQEVTNEA [GAL11]	2.99 ± 0.28	3.52 ± 0.19	2.9 ± 0.28	–
SFSDENSDDFFMDNSYD [ESC2]	1.97 ± 0.068	1.8 ± 0.11	2.63 ± 0.1	1.81 ± 0.062
QPAQPRESRIVSTEGNV [RPL21A]	2.49 ± 0.07	2.83 ± 0.074	3.04 ± 0.069	2.87 ± 0.086
IPMSKTIKDLVGGKSTV [FAS2]	2.96 ± 0.11	2.8 ± 0.089	2.85 ± 0.072	3.04 ± 0.06
ILQQRSKINSTELLDYA [MED4]	2.84 ± 0.086	2.61 ± 0.081	2.44 ± 0.054	2.97 ± 0.11
SESKQLGNTSSVANTPS [SWI3]	3.08 ± 0.071	2.56 ± 0.057	2.98 ± 0.073	2.94 ± 0.046
LRVDEVQGKNLLTNFHG [RPS1A]	3.29 ± 0.067	3.42 ± 0.055	3.3 ± 0.047	3.26 ± 0.041
AHLWQKIHESIVFDICQ [PRP8]	2.56 ± 0.09	2.69 ± 0.11	2.27 ± 0.13	2.39 ± 0.098
NYPQLTEDILKEISTRV [YCS4]	–	3.11 ± 0.17	–	3.41 ± 0.13
AKEKERMLEEAIDHLKA [YIL149C/MLP2]	3.03 ± 0.05	3.12 ± 0.054	3.16 ± 0.056	3.01 ± 0.049
EEKVLSTRLKKACKTAD [SRP68]	3.18 ± 0.087	3.22 ± 0.077	3.56 ± 0.14	3.21 ± 0.075
RNSTRSSGFNEDIVGAL [REC8]	–	3.58 ± 0.21	–	–
HLERNRKDKDAKFRLIL [RPS13]	3.22 ± 0.12	3.06 ± 0.13	3.38 ± 0.24	3.52 ± 0.2
RFKVVKVSGVSLLALWK [RPS23A]	2.55 ± 0.22	1.59 ± 0.14	1.71 ± 0.14	1.81 ± 0.14
HLCSGILSSVNRTVLLK [SRB8]	1.42 ± 0.073	1.67 ± 0.15	1.41 ± 0.17	1.67 ± 0.047
